Data: the supplement of paper PMC12042874
± gives the uncertainty stated by the source.

Assay: amyloid nucleation score (Sup35N fusion, yeast selection) (log enrichment); library NNK1; higher = more nucleation; inactive = no reads after selection
Procedure, shortened: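 The nucleation score is a DiMSum log enrichment of output over input reads, centred on the mode score of non-aggregating sequences. Sequences under 100 input reads were excluded, and reads came from Illumina sequencing of plasmid inserts. Psi-negative yeast expressing Sup35N fused to peptides of 20 random codons were induced with 100 μM copper sulfate for 24 hours and grown 7 days at 30°C on medium lacking adenine and uracil. Random libraries had three technical output replicates.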

Row | Substance | amyloid nucleation score
1 | QNVRSLVHSYLKGTNSSLVG | -0.01 ± 0.74
2 | RSQPLGADVVKLPASRLGRL | -1.11 ± 0.94
3 | LSGPLNGEDFHRIFQVDFRW | 0.244 ± 0.79
4 | THLVTCKGGLSMPDLVYRHV | 0.183 ± 0.28
5 | NFCLWHNWYVMSVLERGD | 7.893 ± 0.071
6 | EHLLCVSRCMLSSNLVTNCA | -0.113 ± 0.94
7 | YAEVGGLYSTSGVRRKNGGR | 0.346 ± 0.32
8 | PCTLGFVSSPSDG | 0.524 ± 0.46
9 | TFRRFGYTELYCGENSLLEC | -0.036 ± 0.84
10 | TIGLCAMYSAARLLV | 0.717 ± 0.93
11 | PFGLRYQLRIRHYTMIEELS | 1.88 ± 0.29
12 | MCLFENMFDHFSGSLQSHGG | 0.318 ± 0.27
13 | DGFALGMSRC | inactive
14 | YTTDREFLPICKDAATRDFL | -0.057 ± 1.1
15 | EYAVIGKS | -0.186 ± 1
16 | ICAPVEIL | -0.176 ± 0.76
17 | RKDRLTIGNRNL | 0.73 ± 0.69
18 | GQTVNCNATYFSVTIVGIVG | 2.8 ± 0.13
19 | TYEYTRWGWYYLS | 1.11 ± 0.12
20 | GAGIENPSASVIMKREWEVL | 0.382 ± 0.44
21 | GRNTGFFHFLWLFRYVTLVM | -1.58 ± 1.7
22 | FSWTYVYYNN | 0.433 ± 0.89

Row | Substance | amyloid nucleation score
23 | LISPVQSNTSAMVCELSDPY | 0.56 ± 0.76
24 | LNSKILGKSRTCDENSWPFV | -0.27 ± 0.51
25 | RHVNEAESAGEGTGNYSRYS | -0.206 ± 0.41
26 | SWASLIC | -0.838 ± 0.89
27 | CRIVKARDGC | -1.23 ± 2.4
28 | SRLIY | -0.894 ± 0.4
29 | VFGVPVTCGGRPVFLIKVVG | -0.794 ± 1.4
30 | VWARVMNAYFDTSH | -1.22 ± 2.4
31 | HSMVFNLEWFKARQDGDLN | 1.5 ± 0.34
32 | VWRSFSGNITCMLFYNFPVR | -0.621 ± 0.95
33 | DQSWSREWPCVLVHHVHYKD | 0.626 ± 0.28
34 | NFSHHSIYGHVPRPEEQNPM | 0.481 ± 1
35 | PWTTG | 0.298 ± 0.24
36 | RRYWVIIIEVAGSRSVETPV | -0.823 ± 0.51
37 | SFIYTSPGFCWRDMFDWQVP | 0.339 ± 0.32
38 | SLRFQSYRAWSMGWKLDDSC | 0.821 ± 1.1
39 | RKIEWTVSLRGGRKCYFSGE | -0.012 ± 0.3
40 | ALSSVNFFQLL | 4.45 ± 0.12
41 | HHWNLIEHYMLDECMEHLNS | -0.183 ± 0.31
42 | SCATVPCKM | 0.53 ± 0.63
43 | VWSNMCFLIDSI | -0.491 ± 0.3
44 | LDVRAIRYILK | -0.252 ± 1.4

Row | Substance | amyloid nucleation score
45 | LSQNLAPGIVFFAV | -1.02 ± 1.7
46 | TASCVIMELPVGTNDKYVWT | 0.296 ± 0.5
47 | CNPSG | 0.819 ± 0.51
48 | AQNSWGGILSVTAGQEFYCL | -0.674 ± 1.7
49 | RGNLGLDLWICSGYRMVMFQ | -0.784 ± 0.3
50 | PWRCLM | inactive
51 | FKLVI | 0.697 ± 0.9
52 | YWLLT | -0.501 ± 0.55
53 | AFQESRGQSNWYIYMLVHTS | 1.11 ± 0.54
54 | LWMYYESFF | 0.843 ± 0.6
55 | KPLILLCHLMGTMSTKCKDM | -0.098 ± 0.26
56 | DIILLYSLFADIFISGRIYT | -0.13 ± 0.58
57 | TLQNNLTFPDCLGLRCGSHV | 5.03 ± 0.085
58 | QLSFCYHLCWVICEGMVLEV | -0.245 ± 0.42
59 | SSCYLCLVVYSFTS | 5.3 ± 0.072
60 | ASFSLDYSFQMPYILRWFIR | 1.03 ± 0.33
61 | FTISGLYSFFVSLLGKEYYG | -0.074 ± 0.43
62 | SIYDARRMVRVHTFHEGLL | -0.577 ± 1.4
63 | DYGVMWI | 0.296 ± 0.41
64 | YLWVIATLQFEV | -0.783 ± 0.63
65 | RYWYMTGMAMLNK | 0.58 ± 0.84
66 | FYCVDN | 0.547 ± 0.65

Row | Substance | amyloid nucleation score
67 | RLCPTVRVQRLMFFPVCPGP | -0.035 ± 0.42
68 | YGVCT | 0.49 ± 0.22
69 | GIYNLHQFTCLFEAAAIACD | -0.478 ± 0.79
70 | AAWMWWTLLSTY | -0.377 ± 0.37
71 | HFYFIYCSQIQVFKQV | 7.422 ± 0.065
72 | LTLMGRSMNKYVAGSTTRAL | -0.371 ± 0.29
73 | MINTTMRSDRRNNWLG | 2.94 ± 0.064
74 | RYGVGLCAYMFFSCVDFRSG | 1.65 ± 0.4
75 | TRTNELF | 0.498 ± 0.33
76 | ADNFIGVVYTMLVRRYMPNS | -1.65 ± 1.2
77 | SRLMV | 0.547 ± 0.71
78 | FRELVDERLRRASQFHWFHF | 0.557 ± 0.8
79 | SYRGVRIGSGGLMYRGANSF | inactive
80 | IGMLGLCGRIPMQAEGGSFR | 0.712 ± 0.52
81 | IVEMHYMAGWTGMEMMSWAH | 0.413 ± 1
82 | DKTGLGRRGPIIFSLSFRWS | -1.55 ± 1.4
83 | GLRTLEPYRYVIIMVPGQVA | -0.164 ± 0.68
84 | RRWYTSHLLWGRNISAGDIL | -0.221 ± 0.44
85 | PSPQWYGDDNVTSRWRLLAV | 0.548 ± 0.28
86 | MRLSQGGPLRLPRVTFSRYC | 0.027 ± 1.7
